Consider 98 substances from the supplement of paper PMC12042874.

This data set in a line: amyloid nucleation score (Sup35N fusion, yeast selection) (log enrichment); library NNK3; higher = more nucleation; inactive = no reads after selection. The gist of the method: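 The nucleation score equals the log enrichment of output over input reads from DiMSum, centred on the mode score of non-aggregating sequences. It was computed only for sequences with 100 or more input reads. The reads came from Illumina sequencing of plasmid inserts from psi-negative yeast expressing Sup35N fused to peptides of 20 random codons, induced with 100 μM copper sulfate for 24 hours and grown 7 days at 30°C without adenine and uracil.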

± gives the uncertainty stated by the source.

With ICAGLWAD, the amyloid nucleation score result was “inactive”. For NLCNWLSCSRTSCNLRLR the value was “inactive”. On to FGIWRLCRFFA, for which the amyloid nucleation score entry was “inactive”. For SWDFAYLYELIYFRFMFQGC the value was “inactive”; for SSDSIKTWWKNTNVICVSGG, “inactive”; for HSNSRD, -0.231 ± 0.69. Turning to CCTIIRAYVVRELAHINNSW, the amyloid nucleation score result is “inactive”. For SNHSRYYRNHDVFWYNIEVG the value was “inactive”. Take VVLMALVQVYFTSGGMFIKD: the amyloid nucleation score entry is “inactive”. For the substance IIHGHHWFGYNSRLCC, the amyloid nucleation score result was “inactive”. For GASCLCWNYRDRLRTEVRYY the value was “inactive”; for MTLFDWFFLEIKAGWFRMVV, “inactive”. For ESMISNGFWGLRARCSVINM the value was “inactive”; for QSEICLSWCIQSVGDVVDYR, “inactive”; for CPIWKDRDCFLLSIKYYALQ, -0.24 ± 0.31. For ISFGYQVYA, the amyloid nucleation score result was “inactive”. With CGIRHTVLVVSRVGGYVWCL, the amyloid nucleation score is -0.156 ± 1.1.

AITHL: the amyloid nucleation score result is “inactive”. For FSDNSSRSGSNSEWYGS the value was “inactive”; for SYMQAWVTNCMSVFSVVMKQ, “inactive”; for RVCRVAPLPAVKGLGVSQNS, “inactive”.

Turning to GSISLASWVVYSIAIR, the amyloid nucleation score entry was “inactive”. On to GLVVKSKYMRRFPGTR, for which the amyloid nucleation score result was “inactive”. With EAKLVGGFTDFRELITNCLV, the amyloid nucleation score worked out at 1.01 ± 0.17. For SVLFLTRIEEVGVRYMFKDC the value was “inactive”; for GSGLPLTALRSTYVAAPHSE, “inactive”; for LVYPSFLLFKSIASHDSTGD, “inactive”.

Take LTIAIWVMYKDQYFCLWHLL: the amyloid nucleation score result was “inactive”. For GSSAPKWVWNWFVPYGKRQG, the amyloid nucleation score was 1.3 ± 0.089. With TYLEMDIAPAMRLCS, the amyloid nucleation score entry was “inactive”. Turning to RFAVTSVMLTSETRDGFDHA, the amyloid nucleation score result is “inactive”. For ICLILARINPSIRDLLG the value was 0.298 ± 0.74; for SCSGW, -0.351 ± 1.1.

As to MSAGCLLNL, the amyloid nucleation score result was “inactive”. Regarding FYISREALLSIASRTLRARQ, the amyloid nucleation score entry was “inactive”. For TNFAYMQREGS the value was “inactive”; for IEAVCNSWRIYGM, “inactive”; for IWENNSIML, “inactive”. FDVDGLILFICWCMQRAHM: the amyloid nucleation score entry was “inactive”. For YVFSTWSSP the value was “inactive”; for SRILRYVTLSEYWFQPIGLD, “inactive”; for CPTCESGKERGVKYVKFLNW, “inactive”. For the substance FDLSLDSMKFEAFYFVVRLV, the amyloid nucleation score result was “inactive”. Regarding VPVVYGSCCKHRGICMYVL, the amyloid nucleation score entry is “inactive”. For PLTFRTMVFKALVEAWRKFN, the amyloid nucleation score entry is “inactive”. Take LRAICKSCGVASGYVAAPRA: the amyloid nucleation score is -0.478 ± 0.52. For QSYVRQF the value was “inactive”; for DQRLFFGHGGFDAVSW, “inactive”; for RNGRKYSIWLVGVSH, “inactive”. As for SCRNCDYLLCGNYHT, the amyloid nucleation score entry is “inactive”.

With VFFVNHFNVWLERM, the amyloid nucleation score result was “inactive”.

Turning to GSDVFTFRWGNMLRTCTTGR, the amyloid nucleation score result is “inactive”. For ITVFNLILM the value was 2.61 ± 0.058; for RPLTVKKY, -0.538 ± 1.4; for AMNPLRLGLWSYNRLAWNMS, “inactive”. YKFLLFFFYSISAFGNDSCD: the amyloid nucleation score result was “inactive”.

Take VSNDLWATVYHWGL: the amyloid nucleation score entry is “inactive”.

As for VRQHCQMLMILFLYPLACGS, the amyloid nucleation score result is “inactive”. With GVNVWRYLCH, the amyloid nucleation score result was “inactive”. For LSIDEWRFSSANSTALECHV the value was “inactive”. For VGTGICKRPGYRAGSV the value was “inactive”. For LLSADFSFSSVEMKLARLGV the value was 1.22 ± 0.18. As for QGSYTAESTVHHWGFKMNNY, the amyloid nucleation score came out at 0.754 ± 0.22. For VCFVWFRRWPTIPR, the amyloid nucleation score result was “inactive”. For GVLREEL the value was “inactive”; for SGRSRWNAH, “inactive”. For TSTYSFCTRVWYPASIIFGR the value was “inactive”; for VIHMH, “inactive”. In the case of FSTWEELLTSHLKCFTAGWG, the amyloid nucleation score is -0.458 ± 1.4.

Take PCLFTSSVSIFYNDALLVLS: the amyloid nucleation score result is “inactive”. For IKPSMQIILWFGLERYSRAW the value was -0.308 ± 0.6; for ENALARMLAEEI, “inactive”; for YQIDQSLCNWCYLGGSWFIA, 2.39 ± 0.072.

On to RQEFIGWFSTSALSAQFLS, for which the amyloid nucleation score result was “inactive”.

Substance SPLTARMADRRDTA gave an amyloid nucleation score of -0.134 ± 1.4. In the case of VKFYNLRRCVIDLMITLSRM, the amyloid nucleation score entry is “inactive”. For ADNTDMKMTEVGTHHNGNQN the value was “inactive”; for MQSAAM, “inactive”.

With MCSRCVAKLATTPRLGFNDS, the amyloid nucleation score result is “inactive”. As for AVSSSLNWLGFVRISGSRY, the amyloid nucleation score was -0.432 ± 1.

On to NHYLT, for which the amyloid nucleation score entry was “inactive”.

With VLLMLLTV, the amyloid nucleation score result was “inactive”.

As for DSVFNL, the amyloid nucleation score result was “inactive”. For SFFARGVFFAIRQARQGNSG the value was “inactive”; for VFMKNLNKIDILTSGLDHIY, “inactive”; for LWVAVYMFGTCWMRDEVDDV, “inactive”. Consider SSDRLYFINGRMRNRFARFC, for which the amyloid nucleation score result was “inactive”. For LDRSVMIRFGLELMRWSSGG the value was 0.356 ± 0.35; for HVFFMKTEEPCTPEY, “inactive”.

For the substance KWYQVGSVLKRIRLNILRG, the amyloid nucleation score is -1.51 ± 2.4.

Substance HSSNWCSVVITLCCTLRKDY came in with an amyloid nucleation score of 0.748 ± 0.19. On to VFYSLMILSLLNSRRDGLHQ, for which the amyloid nucleation score is 0.429 ± 0.48. For LQYNISVWELC the value was “inactive”. For ERRIDG the value was 1.23 ± 0.094. With TCVLLCDVFFHGLVLDLKLV, the amyloid nucleation score entry was “inactive”.

As for YSAVSTSVMCAE, the amyloid nucleation score result is “inactive”. With GRWLV, the amyloid nucleation score entry was “inactive”.

With SGCVKLVVNTCLRYY, the amyloid nucleation score result is “inactive”.
